This passage reports Absorption results from US20090156485A1.

Test [1] has as its target human skin (skin keratin) (human). Nature of the test: quantitative skin binding test on human keratinocytes, after 10% strength SDS treatment.
Test [2] shares this target. Nature of the test: quantitative skin binding test on human keratinocytes in microtiter plates, anti-His antibody, TMB.
In test [3] the target is human hair (hair keratin) (human). Nature of the test: quantitative hair binding test, anti-polyHis peroxidase conjugate, TMB.
Test [4] shares this target. Nature of the test: quantitative hair binding test, after 10% strength SDS treatment.

B1: KBD-B (keratin-binding domain B of human desmoplakin, SEQ ID No.: 166) (protein)
chain: MRGSHHHHHHGSACELEPHTGLLLLSVQKRSMSFQGIRQPVTVTELVDSGILRPSTVNELESGQISYDEVGERIKDFLQGSSCIAGIYNETTKQKLGIYEAMKIGLVRPGTALELLEAQAATGFIVDPVSNLRLPVEEAYKRGLVGIEFKEKLLSAERAVTGYNDPETGNIISLFQAMNKELIEKGHGIRLLEAQIATGGIIDPKESHRLPVDIAYKRGYFNEELSEILSDPSDDTKGFFDPNTEENLTYLQLKERCIKDEETGLCLLPLKEKKKQVQTSQKNTLRKRRVVIVDPETNKEMSVQEGVDLQPSLIS
On to B1, for which the Absorption at 405 nm (A405 nm (standardized to the surface)) in test [1] was found to be 0.185; in test [2], 0.93.

B2: KBD-D (keratin-binding domain of human plakophilin, SEQ ID No.: 168) (protein)
chain: MRGSHHHHHHGSACELGTMNHSPLKTALAYECFQDQDNSTLALPSDQKMKTGTSGRQRVQEQVMMTVKRQKSKSSQSSTLSHSNRGSMYDGLADNYNYGTTSRSSYYSKFQAGNGSWGYPIYNGTLKREPDNRRFSSYSQMENWSRHYPRGSCNTTGAGSDICFMQKIKASRSEPDLYCDPRGTLRKGTLGSKGQKTTQNRYSFYSTCSGQKAIKKCPVRPPSCASKQDPVYIPPISCNKDLSFGHSRASSKICSEDIECSGLTIPKAVQYLSSQDEKYQAIGAYYIQHTCFQDESAKQQVYQLGGICKLVDLLRSPNQNVQQAAAGALRNLVFRSTTNKLETRRQNGIREAVSLLRRTGNAEIQKQLTGLLWNLSSTDELKEELIADALPVLADRVIIPFSGWCDGNSNMSREVVDPEVFFNATGCLRNLSSADAGRQTMRNYSGLIDSLMAYVQNCVAASRCDDKSVENCMCVLHNLSYRLDAEVPTRYRQLEYNARNAYTEKSSTGCFSNKSDKMMNNNYDCPLPEEETNPKGSGWLYHSDAIRTYLNLMGKSKKDATLEACAGALQNLTASKGLMSSGMSQLIGLKEKGLPQIARLLQSGNSDVVRSGASLLSNMSRHPLLHRVMGNQVFPEVTRLLTSHTGNTSNSEDILSSACYTVRNLMASQPQLAKQYFSSSMLNNIINLCRSSASPKAAEAARLLLSDMWSSKELQGVLRQQGFDRNMLGTLAGANSLRNFTSRF
Regarding B2, the Absorption at 405 nm (A405 nm (standardized to the surface)) in test [1] stood at 3.15; in test [3], 0.88; in test [4] it was 0.62; in test [2], 3.69.
